Laboratory results published in paper PMC2944808, “Binding between Crossveinless-2 and Chordin Von Willebrand Factor Type C Domains Promotes BMP Signaling by Blocking Chordin Activity” (PLoS ONE, 2010).

T1: Chordin, full-length, mouse (mouse, UniProt Q9Z0E2 27-948)
T1 construct: Chordin, mouse, full-length; source: SF9 cells, purified as described [12]
T1 sequence (looked up): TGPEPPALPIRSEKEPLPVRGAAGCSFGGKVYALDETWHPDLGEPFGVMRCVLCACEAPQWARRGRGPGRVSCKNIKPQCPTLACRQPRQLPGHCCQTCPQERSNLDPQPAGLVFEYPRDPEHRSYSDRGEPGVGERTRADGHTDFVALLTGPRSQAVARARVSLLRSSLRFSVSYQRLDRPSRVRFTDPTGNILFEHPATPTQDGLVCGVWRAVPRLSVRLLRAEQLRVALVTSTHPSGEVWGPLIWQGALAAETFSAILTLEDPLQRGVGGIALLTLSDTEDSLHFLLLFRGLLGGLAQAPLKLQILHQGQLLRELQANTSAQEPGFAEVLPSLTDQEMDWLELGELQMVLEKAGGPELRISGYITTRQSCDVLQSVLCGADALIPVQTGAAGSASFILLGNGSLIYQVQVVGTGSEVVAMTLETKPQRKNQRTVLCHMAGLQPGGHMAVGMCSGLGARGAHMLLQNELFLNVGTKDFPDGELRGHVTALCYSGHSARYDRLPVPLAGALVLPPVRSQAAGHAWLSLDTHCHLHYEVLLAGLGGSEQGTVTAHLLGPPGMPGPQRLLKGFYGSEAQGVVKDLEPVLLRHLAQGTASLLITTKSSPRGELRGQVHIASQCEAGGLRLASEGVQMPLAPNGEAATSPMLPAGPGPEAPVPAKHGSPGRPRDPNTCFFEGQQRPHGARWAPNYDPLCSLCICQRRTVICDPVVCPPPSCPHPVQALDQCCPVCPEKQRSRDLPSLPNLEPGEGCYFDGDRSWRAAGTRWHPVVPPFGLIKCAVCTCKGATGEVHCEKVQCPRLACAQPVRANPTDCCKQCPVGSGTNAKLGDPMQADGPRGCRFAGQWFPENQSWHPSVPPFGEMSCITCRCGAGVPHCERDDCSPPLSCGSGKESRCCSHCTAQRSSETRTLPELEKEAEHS


Legend:
Details in all cases: both partners purified
[1] = molecular target: T2, VWC2 domain of Chordin, mouse (mouse); test: SPR; BIAcore 2000; VWC2 domain of Chordin immobilised, CV2 proteins perfused; apparent KD from koff/kon; 6 to 9 analyte concentrations, at least three independent experiments
T2 construct: Chordin, mouse, von Willebrand factor type C domain 2 (VWC2); also called Chordin VWC2; VWC2 of Chordin; source: SF9 cells, purified as described [12]

[2] = molecular target: T1, Chordin, full-length, mouse; test: SPR; BIAcore 2000; Chordin immobilised, CV2 proteins perfused; apparent KD from koff/kon; 6 to 9 analyte concentrations, at least three independent experiments
BMP2, human = molecular target: T3, BMP2, human (human, UniProt P12643 283-396); test: SPR; BIAcore 2000; BMP2 immobilised, CV2 proteins perfused; apparent KD from koff/kon; 6 to 9 analyte concentrations, at least three independent experiments
T3 construct: Bone morphogenetic protein 2 (BMP2), human; The discussion speaks of 'the BMP dimer'; also called Bone morphogenetic protein 2; source: E. coli, purified as described [40]
T3 sequence (P12643 283-396): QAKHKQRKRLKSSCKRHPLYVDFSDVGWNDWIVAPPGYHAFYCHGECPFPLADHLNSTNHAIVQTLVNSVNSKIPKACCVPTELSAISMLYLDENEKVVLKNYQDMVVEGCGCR

Kd [1] [nM]	Kd [2] [nM]	Kd (BMP2, human) [nM]	Binder
180	178	50000	CV2 ΔClip (domain or fragment) not shown
145	180	21	CV2-VWC1-4 (domain or fragment) not shown
